Laboratory results taken from patent publication US20260263521A1 (AIMED BIO, published 2026).
Changes are numbered by the printed parent chain. Names and notes keep the numbering of the source. Values joined by “and” are separate entries in the source; they are usually repeats but may differ in a detail not shown here. Equal values may be shown once. Blank lines part the entries; values can stand above or below the binder they belong to.

Legend:
[1] = molecular target: T1, human CD200R1 recombinant protein (construct not stated) (human, UniProt Q8TD46 27-266, limits assumed); assay: ELISA on human CD200R1, O.D 450 nm, 0.0192-300 nM; panel 'P001_CD200R1 human 1'
T1 sequence (looked up): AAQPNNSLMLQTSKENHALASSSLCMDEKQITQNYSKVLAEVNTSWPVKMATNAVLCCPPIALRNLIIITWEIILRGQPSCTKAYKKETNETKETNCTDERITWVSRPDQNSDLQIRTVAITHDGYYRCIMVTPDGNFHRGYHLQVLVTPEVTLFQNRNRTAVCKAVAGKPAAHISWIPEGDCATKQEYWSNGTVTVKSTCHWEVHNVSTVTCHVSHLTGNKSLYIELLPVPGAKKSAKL
Experimental: (§1) 96-well plates were coated with human CD200R1 (R&D systems, 3414-CD) and mouse CD200R1 protein (R&D systems, 2554-CD) at a concentration of 2 μg/mL at 4° C. for 16 hours and then were blocked with 3% skim milk.
(§2) Color was developed with a TMB substrate solution (Thermo Scientific, 34029, 1-Step™ TMB-ELISA Ultra Substrate Solution). The color reaction was stopped with stop solution (Invitrogen, SS04, ELISA Stop Solution). The absorbance was measured at an optical density of 450 nm.
(§3) The secondary engineered antibodies were evaluated by ELISA in the same manner as in Examples described above.

[2] = molecular target: T2, mouse CD200R1 protein (R&D systems, 2554-CD) (mouse, UniProt Q9ES57 26-238, limits assumed); assay: ELISA on mouse CD200R1, O.D 450 nm, 0.0192-300 nM; panel 'P001_CD200R1 mouse 1'
T2 construct: Bought; construct not described
T2 sequence (looked up): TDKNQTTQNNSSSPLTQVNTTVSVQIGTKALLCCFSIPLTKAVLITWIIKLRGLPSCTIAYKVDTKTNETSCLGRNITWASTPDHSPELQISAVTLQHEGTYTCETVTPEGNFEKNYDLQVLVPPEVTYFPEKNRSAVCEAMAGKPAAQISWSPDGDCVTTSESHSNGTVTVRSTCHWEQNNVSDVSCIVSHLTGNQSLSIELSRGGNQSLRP
Experimental: as §1, §2, §3

[3] = molecular target: T3, human CD200RLa (Sino Biological, 11620-H08H) recombinant protein (human, UniProt Q6Q8B3 24-239); assay: ELISA, plate-bound human CD200RLa (2 ug/mL), antibody 0.0192-300 nM, O.D 450 nm; panel 'recombinant human CD200RLa'
T3 construct: Bought; construct not described
T3 sequence (looked up): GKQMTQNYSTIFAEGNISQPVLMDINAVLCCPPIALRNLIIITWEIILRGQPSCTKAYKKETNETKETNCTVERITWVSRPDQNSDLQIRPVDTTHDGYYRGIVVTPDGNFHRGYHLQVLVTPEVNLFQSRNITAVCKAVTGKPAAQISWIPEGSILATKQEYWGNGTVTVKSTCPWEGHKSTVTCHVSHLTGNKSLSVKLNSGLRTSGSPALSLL
Procedure, shortened: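 Plates coated overnight (16 h, 4° C) with human or cynomolgus CD200RLa recombinant protein, blocked with 3% skim milk; bound antibody detected by TMB colour development, reaction stopped before reading.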

[4] = molecular target: T2, mouse CD200R1 protein (R&D systems, …); assay: ELISA, plate-bound mouse CD200R1 (2 ug/mL), IgG 0.0192-300 nM, OD 450 nm; panel 'mouse CD200R1'
Procedure, shortened: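 Wells coated with antigen at 2 μg/mL (4 °C, 16 h) and blocked with 3% skim milk before IgG addition. Bound antibody developed with TMB, reaction stopped, absorbance read at 450 nm.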

[5] = molecular target: T4, recombinant human CD200R1 Fc chimera protein, CF (R&D systems, 3414-CD) (human, UniProt Q8TD46 27-266); assay: competition ELISA: antibody on coated human CD200R1-Fc, competitor rhCD200-Fc at 1 µg/mL, bound CD200 detected
T4 construct: Bought; also called CD200R1-Fc protein; human CD200R1 Fc protein; Fc part of the bought chimera not given
T4 sequence (looked up): T1 sequence (looked up)
Experimental: 96-well plates were coated with human CD200R1 (R&D systems, 3414-CD) recombinant protein at a concentration of 2 μg/mL at 4° C. for 16 hours, and blocked with 3% skim milk for 1 hour. […] The result was washed with PBST and distilled water, and the samples were bound with Pierce™ High Sensitivity Streptavidin-HRP (Thermo Scientific, 21130) at room temperature for 1 hour, and then washed again with PBST and distilled water. TMB substrate solution (Thermo Scientific, 34029, 1-Step™ Ultra TMB-ELISA substrate solution) was added to develop the color. The reaction was stopped with stop solution (Invitrogen, SS04, ELISA Stop Solution).

[6] = molecular target: T5, human CD200R1 expressed on cells (Jurkat-CD200R1, U937-CD200R1, HH cells) (human, UniProt Q8TD46 25-348); assay: flow cytometry on Jurkat-CD200R1 and HH cells, 500 nM antibody in IgG1 form
T5 construct: whole, on cells; also called HH (CRL-2105); cell surface-expressed CD200R1
T5 sequence (looked up): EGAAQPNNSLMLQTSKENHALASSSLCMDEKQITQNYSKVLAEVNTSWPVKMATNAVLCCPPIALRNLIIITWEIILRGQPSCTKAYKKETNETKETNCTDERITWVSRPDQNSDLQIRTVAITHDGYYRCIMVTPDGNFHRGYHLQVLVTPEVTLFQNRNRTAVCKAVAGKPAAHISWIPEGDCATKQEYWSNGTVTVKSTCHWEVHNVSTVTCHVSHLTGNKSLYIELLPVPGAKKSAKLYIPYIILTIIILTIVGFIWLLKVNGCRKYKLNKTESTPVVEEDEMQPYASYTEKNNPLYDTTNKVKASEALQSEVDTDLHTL
Experimental: The cells were washed by centrifugation at 130 g for 5 minutes. The cells were seeded onto 96-well round-bottom plates (SPL, #34296) at a density of 1×10⁵ cells/well in Flow cytometry staining buffer (Invitrogen, #00-4222-26) or FACS buffer. […] After incubation for 1 hour at 4° C., the cells were treated with Alexa-647 Goat anti-human IgG (H+L) cross-adsorbed secondary antibody (Invitrogen, #A21445) and incubated at 4° C. for an additional 30 minutes. After washing twice with FACS buffer, flow cytometry analysis was performed using a Novocyte Flow cytometer (Agilent).

[7] = molecular target: T4, recombinant human CD200R1 Fc chimera …; assay: ELISA, plate-bound human CD200R1-Fc (2 ug/mL), IgG 0.0192-300 nM, anti-human IgG F(ab')2-HRP, OD 450 nm; panel 'human CD200R1'
Experimental: as §1, §2

[8] = molecular target: T6, Hybrid CD200R1 MH (mouse;human, UniProt Q9ES57;Q8TD46); assay: ELISA, plate-bound MH hybrid (1 ug/mL), antibody 0.0192-300 nM, O.D 450 nm; panel 'P001 MH domain-3)'
T6 construct: single domain; mouse D1 over human D2; also called MH hybrid domain; P001 MH domain
T6 sequence (hybrid extracellular part, looked up): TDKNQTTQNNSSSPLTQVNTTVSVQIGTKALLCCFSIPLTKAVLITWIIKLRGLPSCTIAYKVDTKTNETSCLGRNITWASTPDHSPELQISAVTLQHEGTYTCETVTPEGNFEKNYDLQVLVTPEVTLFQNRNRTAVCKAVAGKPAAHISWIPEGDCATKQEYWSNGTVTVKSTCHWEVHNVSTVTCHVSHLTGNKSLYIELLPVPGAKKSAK
Experimental: Recombinant proteins were produced from the extracellular Ig-like V-type domain and Ig-like C2-type domain of human CD200R1, each designed as human-mouse (HM hybrid domain) and mouse-human (MH hybrid domain) recombinant proteins. A 96-well plate was coated at a concentration of 1 μg/mL with each protein at 4° C. for 16 hours and blocked with 3% skim milk. […] After color development with TMB substrate solution (Thermo Scientific, 34029, 1-Step™ Ultra TMB-ELISA Substrate Solution), the color reaction was stopped with a stop solution (Invitrogen, SS04, ELISA Stop Solution), and the absorbance was measured at an O.D. of 450 nm.

- binding result [2]: binds
- binding result [3]: no binding (tested: 300 nM)
B1: P001018v26 (antibody, V domains shown)
VH: QVQLVQSGAEVKKPGASVKVSCKASGYTFTSYVMHWVRQAPGQGLEWMGYINPYNDDTNYNEKFKGRVTMTRDTSTSTVYMELSSLRSEDTAVYYCAREDYYGSRWGTWGQGTLVTVSS
VL: DIVLTQSPASLAVSPGQRATITCRASKSVSTSGYSYMHWYQQKPGQPPKLLIYLASNLESGVPARFSGSGSGTDFTLTINPVEANDTANYYCQHSHELLTFGQGTKVEIK
notes: H3-Y102T, L3-R92H
- EC50 (read off the curve) [1]: ~2 nM and ~4 nM

- binding result [4]: no binding (tested: 300 nM)
- binding result [3]: no binding (tested: 300 nM)
B2: P001002 (IgG) (antibody, V domains shown)
VH: EVQLLESGGGLVQPGGSLRLSCAASGFTFSSYAMSWVRQAPGKGLEWVSWISYDSSSKYYADSVKGRFTISRDNSKNTLYLQMNSLRAEDTAVYYCARGVVQPYLWTEFDYWGQGTLVTVSS
VL: QSVLTQPPSASGTPGQRVTISCSGSSSNIGSNYVNWYQQLPGTAPKLLIYSDSHRPSGVPDRFSGSKSGTSASLAISGLRSEDEADYYCGSWDDSLSGYVFGGGTKLTVL
- IC50 [5]: 11.5 nM
- MFI normalized to P001017 (chimeric OX108), % [6]: > 50%
- EC50 (read off the curve) [7]: ~0.8 nM

- binding result [4]: no binding (tested: 300 nM)
- binding result [3]: no binding (tested: 300 nM)
B3: P001012 (IgG) (antibody, V domains shown)
VH: EVQLLESGGGLVQPGGSLRLSCAASGFTFSGYDMSWVRQAPGKGLEWVSGISSSGGNKYYADSVKGRFTISRDNSKNTLYLQMNSLRAEDTAVYYCARAIRPCISAPCYYDDAMDVWGQGTLVTVSS
VL: B2 VL with S23T, N35S, Q38R, H54Q, D94Y, G98A
- binding result [8]: no binding (tested: 300 nM)
